From the supplement of paper PMC10065799, “High-throughput profiling of sequence recognition by tyrosine kinases and SH2 domains using bacterial peptide display” (eLife, 2023)

Key:
FGFR3 = FGFR3 (UniProt P22607); assay: phosphorylation enrichment, bacterial display (enrichment ratio); higher = better substrate or ligand; peptides without Tyr show the background
c-Abl (mouse) = assay: as above
Fer (mouse) = assay: as above
Jak2 = Jak2 (UniProt O60674); assay: as above
FGFR1 = FGFR1 (UniProt P11362); assay: as above
c-Src = assay: as above
EPHB1 = EPHB1 (UniProt P54762); assay: as above
Hck = Hck (UniProt P08631); assay: as above
Fyn = Fyn (UniProt P06241); assay: as above
AncSZ = assay: as above
EPHB2 = EPHB2 (UniProt P29323); assay: as above
MERTK = MERTK (UniProt Q12866); assay: as above
Fes = Fes (UniProt P07332); assay: as above
SHP2-C SH2 = assay: SH2 binding enrichment of the phosphorylated peptide, bacterial display (enrichment ratio); higher = better substrate or ligand; peptides without Tyr show the background
Grb2 SH2 = Grb2 SH2 (UniProt P62993); assay: as above
c-Src SH2 = assay: as above
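Wherever SH2 binding enrichment of the phosphorylated peptide, bacterial display is given: peptide library displayed on the E. coli surface as eCPX fusions, selected cells deep-sequenced, score is each peptide's frequency after selection divided by its frequency in the input.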
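Wherever phosphorylation enrichment, bacterial display is given: 11-residue human phosphosite peptides and single-mutation variants displayed on the E. coli surface, counted by deep sequencing, each peptide's frequency after selection divided by its frequency in the unselected input library; frequency after pTyr selection over input frequency; kinase dosed for 20-30% of maximal phosphorylation in three min.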

Fes, sequence (P07332 whole entry, looked up): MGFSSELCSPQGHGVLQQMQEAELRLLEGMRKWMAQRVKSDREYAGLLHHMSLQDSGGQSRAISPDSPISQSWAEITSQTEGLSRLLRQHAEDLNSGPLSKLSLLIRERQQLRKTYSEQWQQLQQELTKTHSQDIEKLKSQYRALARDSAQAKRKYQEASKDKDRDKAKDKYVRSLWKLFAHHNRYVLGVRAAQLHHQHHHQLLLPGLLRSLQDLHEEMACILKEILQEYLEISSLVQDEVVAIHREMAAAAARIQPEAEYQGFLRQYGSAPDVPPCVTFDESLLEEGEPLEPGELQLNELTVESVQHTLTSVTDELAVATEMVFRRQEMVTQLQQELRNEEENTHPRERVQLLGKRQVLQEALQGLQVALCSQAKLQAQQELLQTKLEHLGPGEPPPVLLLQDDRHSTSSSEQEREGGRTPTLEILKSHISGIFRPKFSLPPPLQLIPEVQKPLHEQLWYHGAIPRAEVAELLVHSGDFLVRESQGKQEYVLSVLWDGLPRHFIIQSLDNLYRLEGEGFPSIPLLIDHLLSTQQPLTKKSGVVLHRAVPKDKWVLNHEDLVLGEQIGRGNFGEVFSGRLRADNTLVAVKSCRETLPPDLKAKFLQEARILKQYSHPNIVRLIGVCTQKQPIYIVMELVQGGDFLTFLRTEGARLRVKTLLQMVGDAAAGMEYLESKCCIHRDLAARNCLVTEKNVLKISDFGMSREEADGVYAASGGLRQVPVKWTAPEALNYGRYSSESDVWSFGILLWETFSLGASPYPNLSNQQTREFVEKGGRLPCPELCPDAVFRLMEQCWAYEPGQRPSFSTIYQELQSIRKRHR
Hck, sequence (P08631 whole entry, looked up): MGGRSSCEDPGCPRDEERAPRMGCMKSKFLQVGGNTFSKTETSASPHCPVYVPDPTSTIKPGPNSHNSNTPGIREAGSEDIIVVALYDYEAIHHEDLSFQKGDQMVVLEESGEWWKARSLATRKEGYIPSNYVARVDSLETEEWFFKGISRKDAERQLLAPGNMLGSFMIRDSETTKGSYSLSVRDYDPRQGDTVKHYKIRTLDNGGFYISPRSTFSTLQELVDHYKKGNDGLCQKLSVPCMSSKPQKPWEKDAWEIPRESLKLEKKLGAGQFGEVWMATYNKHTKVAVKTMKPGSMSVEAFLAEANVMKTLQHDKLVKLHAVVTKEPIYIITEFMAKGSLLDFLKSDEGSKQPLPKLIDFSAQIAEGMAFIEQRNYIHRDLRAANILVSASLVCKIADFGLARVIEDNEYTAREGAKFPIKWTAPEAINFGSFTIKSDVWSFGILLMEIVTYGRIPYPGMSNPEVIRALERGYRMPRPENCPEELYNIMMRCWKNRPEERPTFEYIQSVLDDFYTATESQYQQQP
FGFR3, sequence (P22607 whole entry, looked up): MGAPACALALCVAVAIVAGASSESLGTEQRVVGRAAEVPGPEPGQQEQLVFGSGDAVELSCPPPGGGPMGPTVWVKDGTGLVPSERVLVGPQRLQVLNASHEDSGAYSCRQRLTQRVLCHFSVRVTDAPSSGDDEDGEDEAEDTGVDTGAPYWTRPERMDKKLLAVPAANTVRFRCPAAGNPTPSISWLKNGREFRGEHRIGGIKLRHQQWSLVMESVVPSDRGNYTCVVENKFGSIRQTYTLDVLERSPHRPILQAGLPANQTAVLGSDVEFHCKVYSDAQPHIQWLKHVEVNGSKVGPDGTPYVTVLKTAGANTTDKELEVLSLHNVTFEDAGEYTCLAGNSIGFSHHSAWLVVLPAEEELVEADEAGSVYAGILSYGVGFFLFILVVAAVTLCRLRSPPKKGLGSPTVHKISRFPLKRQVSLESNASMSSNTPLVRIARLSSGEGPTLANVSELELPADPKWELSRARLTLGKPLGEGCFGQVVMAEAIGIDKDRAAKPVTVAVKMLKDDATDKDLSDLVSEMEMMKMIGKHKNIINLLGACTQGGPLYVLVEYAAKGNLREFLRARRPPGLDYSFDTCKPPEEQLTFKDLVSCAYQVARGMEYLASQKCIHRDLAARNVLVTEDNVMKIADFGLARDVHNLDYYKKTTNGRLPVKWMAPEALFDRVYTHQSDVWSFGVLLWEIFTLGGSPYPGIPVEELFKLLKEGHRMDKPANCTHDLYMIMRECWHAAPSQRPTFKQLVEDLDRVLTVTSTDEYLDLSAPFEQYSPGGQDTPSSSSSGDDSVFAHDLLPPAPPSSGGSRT
MERTK, sequence (Q12866 whole entry, looked up): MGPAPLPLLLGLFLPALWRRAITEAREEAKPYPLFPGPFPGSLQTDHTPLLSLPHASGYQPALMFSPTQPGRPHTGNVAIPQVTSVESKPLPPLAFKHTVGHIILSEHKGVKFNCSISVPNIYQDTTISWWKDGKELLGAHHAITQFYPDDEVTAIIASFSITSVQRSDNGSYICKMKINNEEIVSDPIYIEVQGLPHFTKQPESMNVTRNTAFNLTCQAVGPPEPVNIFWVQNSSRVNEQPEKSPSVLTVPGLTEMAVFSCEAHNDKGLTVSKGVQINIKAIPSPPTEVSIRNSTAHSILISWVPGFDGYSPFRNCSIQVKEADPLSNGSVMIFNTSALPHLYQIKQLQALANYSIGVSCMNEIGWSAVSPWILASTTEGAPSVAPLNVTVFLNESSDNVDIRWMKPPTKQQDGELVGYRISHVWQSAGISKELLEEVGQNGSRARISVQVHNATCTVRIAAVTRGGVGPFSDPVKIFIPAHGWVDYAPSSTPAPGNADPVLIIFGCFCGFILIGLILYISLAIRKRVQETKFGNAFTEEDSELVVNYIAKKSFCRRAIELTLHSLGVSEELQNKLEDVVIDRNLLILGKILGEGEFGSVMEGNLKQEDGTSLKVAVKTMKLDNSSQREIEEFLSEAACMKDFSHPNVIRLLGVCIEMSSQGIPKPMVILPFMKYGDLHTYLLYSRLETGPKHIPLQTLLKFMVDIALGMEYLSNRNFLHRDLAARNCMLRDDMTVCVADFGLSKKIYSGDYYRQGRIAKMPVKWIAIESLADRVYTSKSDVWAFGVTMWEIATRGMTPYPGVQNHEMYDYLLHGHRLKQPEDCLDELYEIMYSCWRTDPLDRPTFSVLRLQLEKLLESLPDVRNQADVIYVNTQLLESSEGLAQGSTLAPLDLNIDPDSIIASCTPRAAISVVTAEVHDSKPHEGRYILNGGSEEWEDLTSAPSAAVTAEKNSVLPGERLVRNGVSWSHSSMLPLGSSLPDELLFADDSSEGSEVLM
Jak2, sequence (O60674 whole entry, looked up): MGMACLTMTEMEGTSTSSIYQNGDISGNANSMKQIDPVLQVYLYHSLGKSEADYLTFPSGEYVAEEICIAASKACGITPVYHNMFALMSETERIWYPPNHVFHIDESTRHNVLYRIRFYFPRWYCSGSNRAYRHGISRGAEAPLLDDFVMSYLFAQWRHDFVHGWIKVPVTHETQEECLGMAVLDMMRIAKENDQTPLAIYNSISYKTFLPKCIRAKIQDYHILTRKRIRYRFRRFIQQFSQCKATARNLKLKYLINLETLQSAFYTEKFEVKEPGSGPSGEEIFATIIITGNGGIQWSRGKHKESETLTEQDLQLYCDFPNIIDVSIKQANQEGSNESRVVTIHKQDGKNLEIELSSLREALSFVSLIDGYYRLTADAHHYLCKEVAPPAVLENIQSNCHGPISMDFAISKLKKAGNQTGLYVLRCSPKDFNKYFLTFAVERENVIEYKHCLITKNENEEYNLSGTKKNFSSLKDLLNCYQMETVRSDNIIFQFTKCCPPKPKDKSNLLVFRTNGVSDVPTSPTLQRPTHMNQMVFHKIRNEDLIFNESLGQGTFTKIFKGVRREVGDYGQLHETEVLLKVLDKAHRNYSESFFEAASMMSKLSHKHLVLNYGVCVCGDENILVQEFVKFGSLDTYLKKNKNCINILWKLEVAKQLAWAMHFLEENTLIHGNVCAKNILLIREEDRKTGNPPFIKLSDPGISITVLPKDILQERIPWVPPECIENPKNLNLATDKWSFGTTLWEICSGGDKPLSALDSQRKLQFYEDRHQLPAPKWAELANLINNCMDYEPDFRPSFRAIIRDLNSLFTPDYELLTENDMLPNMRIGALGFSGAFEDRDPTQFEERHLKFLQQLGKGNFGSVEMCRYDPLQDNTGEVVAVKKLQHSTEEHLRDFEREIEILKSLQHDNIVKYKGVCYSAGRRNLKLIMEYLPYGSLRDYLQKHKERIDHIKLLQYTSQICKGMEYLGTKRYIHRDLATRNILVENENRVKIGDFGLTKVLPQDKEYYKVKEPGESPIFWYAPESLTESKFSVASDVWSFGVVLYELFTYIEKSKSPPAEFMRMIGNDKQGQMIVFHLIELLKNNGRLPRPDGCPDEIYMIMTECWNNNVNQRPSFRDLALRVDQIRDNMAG
Fyn, sequence (P06241 whole entry, looked up): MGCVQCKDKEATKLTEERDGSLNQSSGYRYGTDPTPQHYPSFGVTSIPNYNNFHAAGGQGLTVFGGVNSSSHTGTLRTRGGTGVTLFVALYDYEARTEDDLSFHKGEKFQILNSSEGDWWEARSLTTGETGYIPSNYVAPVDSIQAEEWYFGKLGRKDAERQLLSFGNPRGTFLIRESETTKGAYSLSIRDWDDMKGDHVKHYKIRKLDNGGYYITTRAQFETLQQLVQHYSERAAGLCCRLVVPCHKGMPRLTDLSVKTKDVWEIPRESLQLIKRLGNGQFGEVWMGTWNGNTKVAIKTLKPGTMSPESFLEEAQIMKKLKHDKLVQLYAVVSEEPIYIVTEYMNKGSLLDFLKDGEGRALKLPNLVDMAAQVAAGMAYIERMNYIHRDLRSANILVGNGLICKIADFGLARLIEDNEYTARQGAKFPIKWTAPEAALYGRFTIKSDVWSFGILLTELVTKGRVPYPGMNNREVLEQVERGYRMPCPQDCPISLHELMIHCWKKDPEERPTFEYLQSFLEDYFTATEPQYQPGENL

Row | Sequence | SH2 binding enrichment (SHP2-C SH2) | SH2 binding enrichment (Grb2 SH2) | SH2 binding enrichment (c-Src SH2) | phosphorylation enrichment (FGFR3) | phosphorylation enrichment (c-Abl (mouse)) | phosphorylation enrichment (Fer (mouse)) | phosphorylation enrichment (Jak2) | phosphorylation enrichment (FGFR1) | phosphorylation enrichment (c-Src) | phosphorylation enrichment (EPHB1) | phosphorylation enrichment (Hck) | phosphorylation enrichment (Fyn) | phosphorylation enrichment (AncSZ) | phosphorylation enrichment (EPHB2) | phosphorylation enrichment (MERTK) | phosphorylation enrichment (Fes)
1 | DDKQPYEKKAA [HMGB1_Y144] | 0.741 | 0.964 | 0.606 | 0.629 | 0.539 | 0.475 | 0.851 | 0.493 | 0.436 | 0.585 | 0.536 | 0.518 | 0.988 | 0.464 | 0.415 | 0.947
2 | DDSNLYINVKL [MTHFD1_Y52] | 0.496 | 0.824 | 0.457 | 0.994 | 1.08 | 0.751 | 1.56 | 0.702 | 0.442 | 0.777 | 0.607 | 0.443 | 1.45 | 0.804 | 0.424 | 1.63
3 | DEENFYQGSME [ASCC1_Y36_D34N] | 0.701 | 0.891 | 0.556 | 0.647 | 0.821 | 0.624 | 1.05 | 0.465 | 0.733 | 0.588 | 0.7 | 0.498 | 1.3 | 0.604 | 0.517 | 1.36
4 | DEQKKYYNAMK [SCN5A_Y1494_E1489D] | 0.711 | 1.01 | 0.621 | 0.508 | 0.594 | 0.35 | 0.531 | 0.575 | 0.39 | 0.613 | 0.458 | 0.442 | 0.874 | 0.543 | 0.572 | 0.772
5 | DFKIIYIVPMR [SNRNP200_Y540_A542V] | 2.13 | 1.67 | 1.08 | 0.653 | 1.74 | 0.487 | 0.952 | 0.55 | 0.42 | 0.525 | 0.382 | 0.412 | 1.09 | 0.532 | 0.366 | 1.11
6 | DFPIGYPSFLA [TBCK_Y153_YF] | 0.578 | 0.635 | 0.364 | 0.631 | 0.594 | 0.459 | 0.748 | 0.578 | 0.535 | 0.477 | 0.481 | 0.517 | 0.79 | 0.503 | 0.37 | 1.07
7 | DGTGRYLCNAC [GATA5_Y208_H207R] | 0.644 | 0.976 | 0.487 | 0.522 | 0.523 | 0.362 | 0.455 | 0.475 | 0.349 | 0.4 | 0.375 | 0.424 | 0.552 | 0.4 | 0.383 | 0.573
8 | DHAGTYGLGDR [MAPT_Y18] | 0.783 | 0.797 | 0.588 | 0.45 | 0.442 | 0.3 | 0.507 | 0.406 | 0.533 | 0.363 | 0.43 | 0.48 | 0.429 | 0.304 | 0.352 | 0.576
9 | DIMDLYNQPEP [IL36A_Y96] | 0.597 | 0.879 | 0.557 | 0.688 | 0.852 | 0.66 | 1.55 | 0.491 | 1.06 | 0.547 | 0.817 | 0.69 | 1.5 | 0.602 | 0.481 | 1.21
10 | DKEKWYPLGNS [PIK3C2G_Y1438] | 1.11 | 0.83 | 0.44 | 0.569 | 0.488 | 0.422 | 0.681 | 0.384 | 0.345 | 0.43 | 0.372 | 0.366 | 0.762 | 0.441 | 0.292 | 0.868
11 | DLDPNYVLSSR [CKM_Y125] | 0.75 | 0.765 | 0.528 | 0.714 | 0.528 | 0.394 | 0.759 | 0.465 | 0.534 | 0.523 | 0.473 | 0.416 | 1.17 | 0.636 | 0.464 | 1.01
12 | DLITAYRAHGF [PDHA1_Y118_H113D] | 0.936 | 0.81 | 0.48 | 0.54 | 0.535 | 0.387 | 0.563 | 0.525 | 0.373 | 0.409 | 0.49 | 0.401 | 0.543 | 0.428 | 0.355 | 0.756
13 | DLLNSYTENEG [HSPA4L_Y600_I601T] | 0.882 | 0.7 | 0.457 | 0.759 | 0.623 | 0.446 | 1.16 | 0.578 | 0.616 | 0.482 | 0.603 | 0.614 | 1.17 | 0.618 | 0.492 | 1.24
14 | DLVLQYLRVPL [F9_Y371_A366D] | 1.23 | 1.47 | 0.776 | 0.757 | 0.617 | 0.435 | 3.15 | 0.528 | 0.46 | 0.489 | 0.469 | 0.518 | 1.09 | 0.525 | 0.404 | 1.13
15 | DNEALYDICFC [TUBB3_Y208_R213C] | 0.8 | 0.865 | 0.714 | 0.992 | 2.07 | 12.5 | 1.46 | 0.748 | 6.25 | 4.22 | 5.92 | 7.33 | 6.01 | 5.33 | 8.05 | 1.73
16 | DSMQSYDLDFP [UNC13B_Y243_YF] | 0.686 | 0.782 | 0.605 | 0.646 | 0.623 | 0.541 | 1.03 | 0.537 | 0.569 | 0.642 | 0.461 | 0.48 | 1.15 | 0.546 | 0.453 | 1.02
17 | DSMQSYDLDYP [UNC13B_Y243] | 0.456 | 0.915 | 0.733 | 0.673 | 0.496 | 0.451 | 1.45 | 0.665 | 0.474 | 0.4 | 0.474 | 0.466 | 1.3 | 0.552 | 0.405 | 0.946
18 | DTKPAYQNLRQ [BOD1_Y82] | 0.666 | 11.8 | 0.864 | 0.452 | 0.719 | 0.385 | 0.524 | 0.434 | 0.38 | 0.38 | 0.349 | 0.383 | 0.462 | 0.35 | 0.313 | 0.541

Second part, led by results:

Row | SH2 binding enrichment (SHP2-C SH2) | SH2 binding enrichment (Grb2 SH2) | SH2 binding enrichment (c-Src SH2) | Sequence | phosphorylation enrichment (FGFR3) | phosphorylation enrichment (c-Abl (mouse)) | phosphorylation enrichment (Fer (mouse)) | phosphorylation enrichment (Jak2) | phosphorylation enrichment (FGFR1) | phosphorylation enrichment (c-Src) | phosphorylation enrichment (EPHB1) | phosphorylation enrichment (Hck) | phosphorylation enrichment (Fyn) | phosphorylation enrichment (AncSZ) | phosphorylation enrichment (EPHB2) | phosphorylation enrichment (MERTK) | phosphorylation enrichment (Fes)
19 | 0.961 | 0.813 | 0.461 | DDKEYYSVHNK [MET_Y1235_Y1230D] | 1.51 | 0.942 | 0.603 | 1.17 | 1.6 | 0.874 | 0.563 | 0.791 | 0.529 | 1.93 | 0.629 | 0.405 | 1.06
20 | 0.793 | 0.916 | 0.448 | DEDFLYREELA [POR_Y575_YF] | 0.725 | 0.763 | 0.544 | 1.15 | 0.536 | 0.487 | 0.506 | 0.44 | 0.443 | 1.17 | 0.594 | 0.489 | 1.21
21 | 0.75 | 1.02 | 0.706 | DFCDLYGGEKF [PTPN11_Y66_Y63C_YF] | 0.832 | 0.833 | 0.672 | 0.908 | 0.575 | 2.78 | 0.511 | 1.76 | 1.35 | 1.03 | 0.564 | 0.54 | 1.33
22 | 1.16 | 1.05 | 0.587 | DKANRYFSPNF [PTEN_Y336] | 0.461 | 0.438 | 0.375 | 0.488 | 0.397 | 0.362 | 0.296 | 0.402 | 0.323 | 0.583 | 0.301 | 0.374 | 0.521
23 | 0.88 | 0.711 | 0.413 | DKGTLYIVEQI [PLBD1_Y375] | 0.703 | 0.737 | 0.463 | 1.03 | 0.423 | 0.383 | 0.579 | 0.413 | 0.492 | 0.985 | 0.525 | 0.355 | 1.09
24 | 0.853 | 0.99 | 0.766 | DKNSSYFADWL [TUBB8_Y340] | 1.38 | 0.746 | 0.564 | 1.39 | 1.51 | 0.512 | 0.573 | 0.492 | 0.584 | 1.13 | 0.53 | 1.15 | 1.09
25 | 0.836 | 0.996 | 0.466 | DLLMQHPKAQG [FAM83C_Y600_Y600H] | 0.892 | 1.46 | 0.483 | 0.801 | 0.5 | 0.646 | 0.515 | 0.523 | 0.509 | 0.566 | 0.332 | 0.53 | 0.693
26 | 0.687 | 0.918 | 0.598 | DLVSEYQQFQD [TUBB3_Y422_YF] | 1.01 | 0.8 | 0.58 | 1.25 | 0.671 | 0.657 | 0.721 | 0.643 | 0.675 | 1.52 | 0.662 | 0.511 | 1.33
27 | 0.749 | 0.832 | 0.834 | DNPAKYFILES [DPP10_Y512] | 0.715 | 0.558 | 0.419 | 0.955 | 0.508 | 0.442 | 0.544 | 0.51 | 0.485 | 0.833 | 0.567 | 0.542 | 1.04
28 | 0.696 | 0.894 | 0.505 | DVLVEYQEEGR [GNS_Y416_G418E] | 0.884 | 0.642 | 0.578 | 1.05 | 0.59 | 0.496 | 0.634 | 0.661 | 0.593 | 1.32 | 0.617 | 0.51 | 1.21
29 | 0.511 | 0.757 | 0.464 | EAVSIYQFHGQ [CBLC_Y402] | 0.594 | 0.969 | 10.4 | 0.852 | 0.554 | 7.06 | 2.31 | 3.09 | 5.93 | 1.01 | 1.62 | 5.19 | 0.926
